Laboratory results published in the DeepSol protein solubility set.

assay: soluble on expression in E. coli; label from the status in PepcDB or PDB records

| Sequence | soluble on expression in E. coli |
| --- | --- |
| VKNPSLICAPVMADSIDKMVIETSKAHELGADLVEIRLDWLKDFNPLEDLKTIIKKSPLPTLFTYRPKWEGGQYEGDENERRDVLRLAMELGADYIDVELQVASEFIKSIDGKKPGKFKVIVSSHNYQNTPSVEDLDGLVARIQQTGADIVKIATTAVDIADVARMFHITSKAQVPTIGLVMGERGLMSRILCSKFGGYLTFGTLDSSKVSAPGQPTIKDLLDLYNFRRIGPDTKVYGIIGKPVSHSKSPIVHNQAFKSVDFNGVYVHLLVDNLVSFLQAYSSSDFAGFSCTIPHKEAALQCCDEVDPLAKSIGAVNTILRRKSDGKLLGYNTDCIGSISAIEDGLRSSGDPSSVPSSSSPLASKTVVVIGAGGAGKALAYGAKEKGAKVVIANRTYERALELAEAIGGKALSLTDLDNYHPEDGMVLANTTSMGMQPNVEETPISKDALKHYALVFDAVYTPRITRLLREAEESGAITVSGSEMFVRQAYEQFEIFTGLPAPKELYWQIMSKYGSRENLYFQ | soluble |
| VLGSSSTDAIGPGSVFQIDATVADVYLVSRFNRTHIIGRPVLYIVQDCFSKLIVGLYVGLEGPSWIGAAMALANTAGNKVSFCSQYGIDIQEEEWPVHHLPQAILADRGEMLSDNAESLIMNLGITVKNTPPFRADWKPLVERYFKLTNERTKSLLPGAVNTDFMQRGGRDYRLDAKLDLMQFTAIIIKCALFHNNHYRIDNYNKDEMMVADEVEPIPREIWNWGIANRMGKLRHVDEEVVKLNLMPSDNGVVTAKGIRFKGLFYSSKSSMKEQWFVKARSSGSWKVPVSYDPRNMNYIYIKKSATEFEKCYLLEYQTAFKDKYIEEIEYLMEWEKMQKAKSLDEGLQAKADLITEIETIVEGAKSKTNKELSLSTESDAQRKKNIRQNRQVEKEINREIEAFELDRQPNNKNAEIISLNELEEELPSNPLDLLRRKQREMLGKINE | not soluble |
| VMPLILLPAVDVVEGRAVRLVQGKAGSQTEYGSAVDAALGWQRDGAEWIHLVDLDAAFGRGSNHELLAEVVGKLDVQVELSGGIRDDESLAAALATGCARVNVGTAALENPQWCARVIGEHGDQVAVGLDVQIIDGEHRLRGRGWETDGGDLWDVLERLDSEGCSRFVVTDITKDGTLGGPNLDLLAGVADRTDAPVIASGGVSSLDDLRAIATLTHRGVEGAIVGKALYARRFTLPQALAAVRD | soluble |
| VNCVFITPDKMDGKRISYDYVVQQYEIQRLLQRRPLITLIDICKEITSGIRVKKEYYTDKNGYKIIAPGDIRNEVIYINELKVVQPEVVREKDIINNGDILITASGKSGQVIYVNEVLEGCVVTSDIIKITLRDRDKGIRLYKFLKSSIGQMLLNSIKIGILNKIFVEDVENLLIPEDFDTYQEDCSDDSTVYAEAEKLYRSAENIFYRVFDYKGEKKNLKHFYVTEYLDSHRLDPEYYSNFYTELYRVIHKNFDDVKWEELGELVEIKKADKPEISKNQKVKYFLLADIDPNFSIIKETHEDFYGNLSNRMRYIVRRGEIVTAKGGSATGTKGHATALITEKFDGLVTTDALYNLVPRRINPYYLLFLFKQPIILNQVNMFTKGTLYKLIQRNDFEKIKIPRLESSLEEQIVDKMMNYLSVLQNKF | not soluble |
| VNKLSPRFEINEGTYSSFAVAQEGAAPGAGEVRTHRIAVGLYSLIDGSVTRTHRVELDVDSELTEVPELVGVPAADLVIVNDDDLTYCLMQLDPASLAFVVENIDKIADPMARTLCWSAAWEMTRDGSMRARDFVRLIARGAQAETEIAVLERVLMQASRALSSYVDPQWAEQEGSALLADAMLQAARELEPGSDAQLAFVQALAKVKLTDEAAAEFALIAKGSTSLPGVVVDSDLRWWALTALIARGDVPAAEVEQRIAQLLALDKSSAGELAALRAYAAQPSQDVKAKIFAQITDPANSLSNLYLRHKLEGLQFAGSAPYLEQFSESVFELVEPLWKALSSEVAAVTVTGIYPSWDVSAESVERAHAFLDAHPDLPGAARRIISEGAAGQERAVRLRAIDAA | not soluble |
| VQLQQSGPVLVKPGGSVKMSCKASEYTLTSYLFQWVKQKSGQGLEWIGYIYPYNGGTRYNEKFRGKATLTSDKSSNTAYLELSSLTSEDSAVYYCARSSMSDPGANWGPGTLVTVSSASTKGPSVFPLAPSSKSTSGGTAALGCLVKDYFPEPVTVSWNSGALTSGVHTFPAVLQSSGLYSLSSVVTVPSSSLGTQTYICNVNHKPSNTKVDKKVEP | soluble |
| VQQTERAVMLRFGRVVESDVKPGLHFKIPYVNQVRKFDARLLTLDAPTQRFLTLEKKAVMVDAYAKWRVADAERFYTATSGLKQIADERLSRRLEAGLRDQFGKRTLHEVVSGERDALMGDITASLNRMAQKELGIEVIDVRVKAIDLPKEVNRSVFERMSTEREREAREHRAKGRELAEGIRADADRQRRVIVAEAYRESEETRGDGDSKAAAIYAKAYNQDPEFYSFYRSLKAYRESFAEKRDVLVLDPSSEFFRY | not soluble |
| VRQRTIVCPLIQNDGAYLLCKMADDRGVFPGQWAISGGGVEPGERIEEALRREIREELGEQLLLTEITPWTFSDDIRTKTYADGRKEEIYMIYLIFDCVSANREVKINEEFQDYAWVKPEDLVHYDLNVATRKTLRLKGLL | soluble |
| VRRKVRRLTLAVSALVALFPAVAGCSDSGDNKPGATIPSTPANAEGRHGPFFPQCGGVSDQTVTELTRVTGLVNTAKNSVGCQWLAGGGILGPHFSFSWYRGSPIGRERKTEELSRASVEDINIDGHSGFIAIGNEPSLGDSLCEVGIQFSDDFIEWSVSFSQKPFPLPCDIAKELTRQSIANSK | not soluble |
| VRSRNGGATKIVREHYLRSDIPCLSRSCTKCPQIVVPDAQNELPKFILSDSPLELSAPIGKHYVVLDTNVVLQAIDLLENPNCFFDVIVPQIVLDEVRNKSYPVYTRLRTLCRDSDDHKRFIVFHNEFSEHTFVERLPNETINDRNDRAIRKTCQWYSEHLKPYDINVVLVTNDRLNREAATKEVESNIITKSLVQYIELLPNADDIRDSIPQMDSFDKDLERDTFSDFTFPEYYSTARVMGGLKNGVLYQGNIQISEYNFLEGSVSLPRFSKPVLIVGQKNLNRAFNGDQVIVELLPQSEWKAPSSIVLDSEHFDVNDNPDIEAGDDDDNNESSSNTTVISDKQRRLLAKDAMIAQRSKKIQPTAKVVYIQRRSWRQYVGQLAPSSVDPQSSSTQNVFVILMDKCLPKVRIRTRRAAELLDKRIVISIDSWPTTHKYPLGHFVRDLGTIESAQAETEALLLEHDVEYRPFSKKVLECLPAEGHDWKAPTKLDDPEAVSKDPLLTKRKDLRDKLICSIDPPGCVDINDALHAKKLPNGNWEVGVHIADVTHFVKPGTALDAEGAARGTSVYLVDKRIDMLPMLLGTDLCSLKPYVDRFAFSVIWELDDSANIVNVNFMKSVIRSREAFSYEQAQLRIDDKTQNDELTMGMRALLKLSVKLKQKRLEAGALNLASPEVKVHMDSETSDPNEVEIKKLLATNSLVEEFMLLANISVARKIYDAFPQTAMLRRHAAPPSTNFEILNEMLNTRKNMSISLESSKALADSLDRCVDPEDPYFNTLVRIMSTRCMMAAQYFYSGAYSYPDFRHYGLAVDIYTHFTSPIRRYCDVVAHRQLAGAIGYEPLSLTHRDKNKMDMICRNINRKHRNAQFAGRASIEYYVGQVMRNNESTETGYVIKVFNNGIVVLVPKFGVEGLIRLDNLTEDPNSAAFDEVEYKLTFVPTNSDKPRDVYVFDKVEVQVRSVMDPITSKRKAELLLK | soluble |
| VSAETAARIDAESDSMDWPQEVTLGEVLRERFGDDLVDHVVSALQGGVYSSTSDDLSLRDTVPQLARALDRLKEEGKPVTITAAVQSIMADREKRNKARGYKPSVFAAFPGGYAELYEALAEKSGAKIHIDAFITGIQWKDGFTLKGAEGTFDK | not soluble |
| VSELRLMAVHAHPDDESSKGAATLARYADEGHRVLVVTLTGGERGEILNPAMDLPDVHGRIAEIRRDEMTKAAEILGVEHTWLGFVDSGLPKGDLPPPLPDDCFARVPLEVSTEALVRVVREFRPHVMTTYDENGGYPHPDHIRCHQVSVAAYEAAGDFCRFPDAGEPWTVSKLYYVHGFLRERMQMLQDEFARHGQRGPFEQWLAYWDPDHDFLTSRVTTRVECSKYFSQRDDALRAHATQIDPNAEFFAAPLAWQERLWPTEEFELARSRIPARPPETELFAGIEP | soluble |
| VSQVHRILNCRGTRIHAVADSPPDQQGPLVVLLHGFPESWYSWRHQIPALAGAGYRVVAIDQRGYGRSSKYRVQKAYRIKELVGDVVGVLDSYGAEQAFVVGHDWGAPVAWTFAWLHPDRCAGVVGISVPFAGRGVIGLPGSPFGERRPSDYHLELAGPGRVWYQDYFAVQDGIITEIEEDLRGWLLGLTYTVSGEGMMAATKAAVDAGVDLESMDPIDVIRAGPLCMAEGARLKDAFVYPETMPAWFTEADLDFYTGEFERSGFGGPLSFYHNIDNDWHDLADQQGKPLTPPALFIGGQYDVGTIWGAQAIERAHEVMPNYRGTHMIADVGHWIQQEAPEETNRLLLDFLGGLRP | soluble |
| VTSPNSTAPTPSLITAPPPSTTEDLRLALRAATLYYLDGMTQAEVATRLGVSRPTAGRLVARARAQGLVRIEVQAPAHLRDALRSDEERALEEKYGLVEAVVVADSVDAAGAIDDHNSFAGVGRAAASLLVRRIREGDTLGFTWGPETVAVAQGLPSGAATCASVVQLDGSVSAINYQTGTEYVLGRCAEQLQANTVRLPVPLYADASTVVSMRGDSVISKALEAGRTAEMMMFGTGAVSTSTTLFEGSFIDTDMLSVLTGLGAVGEVGGRFYRLDGTEVAGPLDERAMSVPLDDIRACEGSILVTGGVAKHQAALGALHGGLAKMLVCDIECARWLLDQ | not soluble |
| VTVSTSTARSADDSDHSSEVARPTDSRRDPEVLREALQRWLAAQLPPDAAPEVTHVHLPDANGMSSETILFDATWSGEVHPLVARVAPADTTMPVFPEYDLDGQFQVMAQVREHSAVPVPVVYWSESDPGPLGAPFFVMARVSGQVPPDVMPYNFGSWVTEATEEQRALLQHSAVNVLAQLHDIDRPWERFAFLQLPGSGPTVTEALAAHIRQQRDYYEWTTLSGPRSPLIERGFAWMEDNLPDDPSPAVFCWGDARIGNMMFEDFRPVAVLDWEMATLGPRELDLGWMTYLHRFFEDIAASAGLDGMPDFLRLDDLAALYEELTGHTPRDLEYYTAYAALRQATIMLRIQERAIHFGQAVAPEDPDDMIMHRASLEAMLDGTYWEKIR | not soluble |
| VVELPKTDEGLGFNIMGGKEQNSPIYISRVIPGGVADRHGGLKRGDQLLSVNGVSVEGEQHEKAVELLKAAQGSVKLVVR | soluble |
| VVIFFGVILGILIVEYGQKRSFSSWLVEKMFAYRKYKLSKKVDNYKGVETQRNRNIPYHLDNPEEIVGFSTQEYDVNGMQVFIINDQKQSHQPVIYYLYGSVYLRRPEKLHFKTVKHLIQLTNAKVVFPNFPKVPYATYQDVYPKLVEAYQQFCLSNGPSQVSVIGDSSGGGMALAFAKYIRDTKTAPQPKQLILISPWLDVSFKNQAYKDFEAEEAYLDARRLRDIGELWAGGQGNMQLPYVSPLYGDYEDLPEITTFVGTKEIFYPDIMSLHDQLTRQRIANQLIIAEKMIHAYVIFPIREAKQARKQIAELVLKTVEHT | not soluble |
| WLRPAFAGKTRLDALDEAAFEQAVKSLLSWTQHALIDRHVPAHIIVPSGMGRHIDYGLADDGTPQPPVLSVKLQELFGLPDTPRIAKNRIPLTLHLLSPGGRPLQVTQDLKSFWTNTYPEVKKEMKGRYPKHPWPDDPWTATATHRTKSPGK | not soluble |
| YDNLAHNLAVERGLTAGVLGSQGKTEIVQKLTQQRKKVDDAVNSLVQLNTPLISSSDSYDLLQDVQVQLNRLNQVRQGVDRLSPQIAPFGYYSNLNQLIIDNIDILIAQTQSRELGTLGDALISVIVMKERAGQARGALNGVFAKGSATSVLFSNIEGYIQSGDYASRKAQIAFPEQYRQSLQSHQSNPAWKKVEQVQQSFLNQSANLDNIQGPQATEWFPMATERIGLMNQLRNQMVDQMLSAA | not soluble |
